Assay in all cases: holdup assay
Common to all, as to design: key: below the threshold = too weak to quantify, mostly under pKd 3.1 to 4
What all share (conditions): plain residues with an end cap or a label only (N-terminal biotin on a linker: ado-ado)

Assay [1] has as its target T1, LRRC7, Q96NW7.
T1 sequence (Q96NW7 1440-1537, limits assumed, looked up): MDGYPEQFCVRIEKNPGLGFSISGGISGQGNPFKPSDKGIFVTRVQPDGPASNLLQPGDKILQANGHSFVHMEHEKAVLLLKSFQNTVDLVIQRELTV

The target in assay [2] is T2, NHERF3_4, Q5T2W1.
T2 sequence (Q5T2W1 373-468, limits assumed, looked up): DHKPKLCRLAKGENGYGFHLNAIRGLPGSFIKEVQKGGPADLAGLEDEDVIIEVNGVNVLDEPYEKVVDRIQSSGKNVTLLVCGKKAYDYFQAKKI

Assay [3] concerns the target DLG2_3, Q15700.
For assay [4], the target named is TJP1_2, Q07157.
Chain of TJP1_2, Q07157 (Q07157 181-274): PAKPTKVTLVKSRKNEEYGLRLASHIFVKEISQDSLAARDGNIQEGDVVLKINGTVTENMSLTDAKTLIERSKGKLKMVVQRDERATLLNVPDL
Assay [5] concerns the target NOS1, P29475.
The target in assay [6] is DLG1_3, Q12959.
Chain of DLG1_3, Q12959 (Q12959 457-571): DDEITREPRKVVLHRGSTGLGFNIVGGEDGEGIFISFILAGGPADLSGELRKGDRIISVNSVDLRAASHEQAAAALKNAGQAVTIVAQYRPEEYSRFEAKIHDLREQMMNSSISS
The target of assay [7] is AHNAK1, Q09666.
Chain of AHNAK1, Q09666 (Q09666 4-100): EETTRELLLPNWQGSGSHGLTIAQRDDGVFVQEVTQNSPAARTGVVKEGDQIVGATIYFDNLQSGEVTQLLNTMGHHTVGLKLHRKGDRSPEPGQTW
Assay [8] addresses PICK1, Q9NRD5.
In assay [9] the target is T3, DLG3_1, Q92796.
T3 sequence (Q92796 125-227, limits assumed, looked up): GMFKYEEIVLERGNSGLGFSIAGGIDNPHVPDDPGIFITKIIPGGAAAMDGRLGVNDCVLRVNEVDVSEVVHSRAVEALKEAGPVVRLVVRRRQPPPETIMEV

For assay [10], the target named is IL16_3, Q14005.
Chain of IL16_3, Q14005 (Q14005 1107-1207): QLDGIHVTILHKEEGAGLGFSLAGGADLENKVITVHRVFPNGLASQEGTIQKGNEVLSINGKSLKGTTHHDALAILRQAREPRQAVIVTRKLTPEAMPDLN
In assay [11] the target is HTRA1, Q92743.
Chain of HTRA1, Q92743 (Q92743 360-477): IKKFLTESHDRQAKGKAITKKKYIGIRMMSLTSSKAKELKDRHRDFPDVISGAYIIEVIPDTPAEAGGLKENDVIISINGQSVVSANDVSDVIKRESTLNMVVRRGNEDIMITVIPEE
Assay [12] concerns the target MAST1, Q9Y2H9.
The target of assay [13] is T4, LIN7A, O14910.
T4 sequence (O14910 103-200, limits assumed, looked up): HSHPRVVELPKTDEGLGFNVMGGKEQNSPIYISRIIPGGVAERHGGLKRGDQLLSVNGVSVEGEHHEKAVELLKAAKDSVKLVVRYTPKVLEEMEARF

Assay [14] addresses T5, TX1BP3, O14907.
T5 sequence (O14907 10-122, limits assumed, looked up): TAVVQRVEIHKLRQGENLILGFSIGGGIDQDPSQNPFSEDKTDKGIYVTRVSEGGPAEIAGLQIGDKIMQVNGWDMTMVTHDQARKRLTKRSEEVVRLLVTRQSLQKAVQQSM

In assay [15] the target is T6, MPDZ_12, O75970.
T6 sequence (O75970 1857-1958, limits assumed, looked up): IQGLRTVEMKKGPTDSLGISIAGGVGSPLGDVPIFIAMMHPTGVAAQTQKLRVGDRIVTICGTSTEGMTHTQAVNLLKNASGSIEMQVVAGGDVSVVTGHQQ

In assay [16] the target is PTPN3, P26045.
Chain of PTPN3, P26045 (P26045 505-587): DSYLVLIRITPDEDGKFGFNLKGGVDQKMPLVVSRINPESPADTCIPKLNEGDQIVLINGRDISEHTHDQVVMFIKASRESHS
The target in assay [17] is NHERF4_2, Q86UT5.
Chain of NHERF4_2, Q86UT5 (Q86UT5 220-308): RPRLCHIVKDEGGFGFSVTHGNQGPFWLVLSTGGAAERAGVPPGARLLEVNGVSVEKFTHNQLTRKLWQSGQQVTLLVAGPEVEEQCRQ
The target in assay [18] is MAGI2_5, Q86UL8.
Chain of MAGI2_5, Q86UL8 (Q86UL8 915-1017): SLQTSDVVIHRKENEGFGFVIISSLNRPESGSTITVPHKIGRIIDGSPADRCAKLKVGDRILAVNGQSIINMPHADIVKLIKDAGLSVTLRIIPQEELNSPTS
In assay [19] the target is T7, DFNB31_3, Q9P202.
T7 sequence (Q9P202 811-907, limits assumed, looked up): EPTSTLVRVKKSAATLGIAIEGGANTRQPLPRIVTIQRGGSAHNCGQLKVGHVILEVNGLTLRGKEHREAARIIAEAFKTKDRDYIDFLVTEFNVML

Assay [20] deals with T8, MPDZ_10, O75970.
T8 sequence (O75970 1624-1722, limits assumed, looked up): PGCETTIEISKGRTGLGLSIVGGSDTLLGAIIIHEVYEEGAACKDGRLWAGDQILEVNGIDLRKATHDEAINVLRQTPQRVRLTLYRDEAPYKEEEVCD

Assay [21] has as its target T9, APBA3_1, O96018.
T9 sequence (O96018 389-490, limits assumed, looked up): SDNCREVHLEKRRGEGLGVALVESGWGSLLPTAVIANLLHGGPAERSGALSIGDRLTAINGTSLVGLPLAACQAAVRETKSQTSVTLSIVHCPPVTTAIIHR

For assay [22], the target named is T10, ARHGEF11, O15085.
T10 sequence (O15085 42-136, limits assumed, looked up): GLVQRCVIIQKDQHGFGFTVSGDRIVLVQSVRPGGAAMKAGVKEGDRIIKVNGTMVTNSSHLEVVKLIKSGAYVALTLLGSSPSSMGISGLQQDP

Assay [23] deals with T11, PDZRN3_1, Q9UPQ7.
T11 sequence (Q9UPQ7 244-349, limits assumed, looked up): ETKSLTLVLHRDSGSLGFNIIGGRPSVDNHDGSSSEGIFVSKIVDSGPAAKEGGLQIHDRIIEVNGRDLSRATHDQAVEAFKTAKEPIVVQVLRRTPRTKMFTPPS

The target in assay [24] is T12, MPDZ_5, O75970.
T12 sequence (O75970 695-796, limits assumed, looked up): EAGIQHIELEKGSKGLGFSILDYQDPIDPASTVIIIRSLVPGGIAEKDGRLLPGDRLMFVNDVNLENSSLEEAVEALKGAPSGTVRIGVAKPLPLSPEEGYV

For orientation: pKd means the negative decadic logarithm of the Kd, by convention in mol/L.

Chain of MAST1, Q9Y2H9 (Q9Y2H9 962-1065): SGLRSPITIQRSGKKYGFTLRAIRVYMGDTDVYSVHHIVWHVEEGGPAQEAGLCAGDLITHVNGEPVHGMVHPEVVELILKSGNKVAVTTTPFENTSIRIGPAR
Chain of NOS1, P29475 (P29475 9-101): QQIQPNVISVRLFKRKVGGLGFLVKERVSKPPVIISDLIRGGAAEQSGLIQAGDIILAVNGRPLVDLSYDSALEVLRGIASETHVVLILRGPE
Chain of PICK1, Q9NRD5 (Q9NRD5 17-115): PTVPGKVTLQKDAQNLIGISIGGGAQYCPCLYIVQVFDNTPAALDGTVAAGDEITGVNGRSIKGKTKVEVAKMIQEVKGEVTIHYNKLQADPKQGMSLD

EFKQTSSFLV [JAM1, Q9Y624]: the pKd entry in assay [1] was “below the threshold”; in assay [2], 3.51; in [3], 3.63; in assay [4] it was 4.01; in assay [5] it was 3.97; in assay [6], “below the threshold”. In addition, the negative logarithm of the Kd (pKd) entry in assay [7] was “below the threshold”; in assay [8], 4.27; in assay [9] it was “below the threshold”; in assay [10], “below the threshold”; in assay [11], 5.15; in assay [12], 3.56. The negative logarithm of the Kd (pKd) result in assay [13], in assay [14], in [15], in [16], in assay [17] and in [18] was “below the threshold” throughout. The pKd is 3.93 in assay [19]; “below the threshold” in assay [20]; “below the threshold” in assay [21]; “below the threshold” in [22]; “below the threshold” in assay [23]; “below the threshold” in assay [24].

As for DFKHTKSFII [JAM2, P57087], the negative-log Kd (pKd) result is “below the threshold” in [1]; “below the threshold” in assay [2]; 3.75 in assay [3]; “below the threshold” in assay [4]; 3.75 in assay [5]; “below the threshold” in assay [6]. Besides, the negative logarithm of the Kd (pKd) entry in assay [7] was “below the threshold”; in assay [8], “below the threshold”; in [9], “below the threshold”; in assay [10], “below the threshold”; in assay [11] it was 4.97; in [12], 3.7. For the same molecule, the pKd result in assay [13] is “below the threshold”; in assay [14], “below the threshold”; in assay [15], “below the threshold”; in [16], 3.81; in [17] it was “below the threshold”; in [18], “below the threshold”. The pKd in assay [19] is 3.71; in [20], “below the threshold”; in [21] it was “below the threshold”; in assay [22] it was “below the threshold”; in [23], “below the threshold”; in assay [24] it was “below the threshold”.

Consider PKSNSSKEYV [CLDN7, O95471], for which the negative logarithm of the Kd (pKd) result was “below the threshold” in [1]; “below the threshold” in assay [2]; “below the threshold” in assay [3]; “below the threshold” in [4]; 3.57 in assay [5]; “below the threshold” in assay [6]. Also, the pKd entry in assay [7] was “below the threshold”; in assay [8] it was “below the threshold”; in assay [9], “below the threshold”; in assay [10], “below the threshold”; in [11], 3.72; in assay [12] it was 3.62. Also, the pKd entry in assay [13], in [14], in [15], in assay [16], in assay [17] and in assay [18] was “below the threshold” in each case. In addition, the pKd result in [19], in [20], in assay [21], in [22], in [23] and in assay [24] was “below the threshold” in each case.

Consider SQPLLVHDDV [KIT, P10721], for which the negative logarithm of the Kd (pKd) result in [1] is “below the threshold”; in assay [2], “below the threshold”; in assay [3], “below the threshold”; in assay [4] it was 3.5; in assay [5] it was “below the threshold”; in assay [6], “below the threshold”. The pKd result in [7] is “below the threshold”; in assay [8], 4.06; in assay [9], “below the threshold”; in assay [10], “below the threshold”; in [11], “below the threshold”; in assay [12], “below the threshold”. For the same molecule, the negative-log Kd (pKd) result in assay [13], in assay [14], in [15], in [16], in assay [17] and in [18] was “below the threshold” each time. Further, the negative-log Kd (pKd) entry in assay [19] is “below the threshold”; in [20], 3.93; in assay [21], “below the threshold”; in assay [22], “below the threshold”; in assay [23], “below the threshold”; in assay [24], “below the threshold”.

The values above are taken from publication PMC9482650, “Quantitative fragmentomics allow affinity mapping of interactomes” (Nature Communications, 2022).
